Assays:
[1] = target: T1, sclerostin loop 3-6 (sites 127-128 mutated) (UniProt Q9BQB4 135-169, G151A;E152A); test: BLI
T1 chain: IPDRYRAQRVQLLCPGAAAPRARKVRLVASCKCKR

sclerostin = sclerostin (UniProt Q9BQB4 24-213); test: BLI
sclerostin, sequence (Q9BQB4 24-213): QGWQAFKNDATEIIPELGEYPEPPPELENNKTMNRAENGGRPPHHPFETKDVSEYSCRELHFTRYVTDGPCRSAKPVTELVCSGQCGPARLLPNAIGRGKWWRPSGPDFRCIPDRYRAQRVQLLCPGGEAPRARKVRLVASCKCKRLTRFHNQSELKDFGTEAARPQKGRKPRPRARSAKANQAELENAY

B1: Aptscl56 (ssDNA)
DNA: CGGGGTGTGGGTTCGTCGTTAGCTTGATTTGGCAGCTGCC
binding result [1]: no binding | Kd (sclerostin): 68.6 nM

From publication PMC10914587
